In the series the target is T1, HY5 (Arabidopsis thaliana, UniProt O24646 1-168).
T1 sequence: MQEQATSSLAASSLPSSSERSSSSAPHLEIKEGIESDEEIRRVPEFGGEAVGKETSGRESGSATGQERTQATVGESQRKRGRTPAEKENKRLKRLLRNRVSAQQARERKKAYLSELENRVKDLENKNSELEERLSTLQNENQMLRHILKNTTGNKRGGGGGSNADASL
Put plainly: EMSA; EMSA according to manufacturer's protocol (Thermofisher); buffer, salt, pH and temperature not stated. The conditions noted are these: protein: recombinant; tags: GST (pDEST15, N-terminal); label: biotin 3' end; blunt.

B1: pNRT1.1-EMSA (G-box probe, NRT1.1 promoter) (dsDNA)
DNA 1: GAGTCACACATGTGTCACTT
DNA 2: AAGTGACACATGTGTGACTC
Turning to B1, the binding result was “binds”.

(Values after PMC11144241, “Nutrient levels control root growth responses to high ambient temperature in plants”.)
